# Results taken from doi:10.1101/2025.08.18.670856.
# Legend:
# [1] = molecular target: FetA-HIS (wild type, from the plasmid AHSG-bio-His) (human) (UniProt P02765); assay: SPR
# [2] = molecular target: HIF-1α wild type used in SPR: C-terminal domain (CTD) of hypoxia-stable HIF-1α (579-826 residues) (human) (UniProt Q16665); assay: SPR
Kd [1],Kd [2],Molecule
0.09 µM,,HIF-1α 743D>L point mutant (from UniProt Q16665 1-826) (natural protein)
,0.0234 µM,"FetA-HIS (wild type, from the plasmid AHSG-bio-His) (natural protein) APHGPGLIYRQPNCDDPETEEAALVAIDYINQNLPWGYKHTLNQIDEVKVWPQQPSGELFEIEIDTLETTCHVLDPTPVARCSVRQLKEHAVEGDCDFQLLKLDGKFSVVYAKCDSSPDSAEDVRKVCQDCPLLAPLNDTRVVHAAKAALAAFNAQNNGSNFQLEEISRAQLVPLPPSTYVEFTVSGTDCVAKEATEAAKCNLLAEKQYGFCKATLSEKLGGAEVAVTCMVFQTQPVSSQPQPEGANEAVPTPVVDPDAPPSPPLGAPGLPPAGSPPDSHVLLAAPPGHQLHRAHYDLRHTFMGVVSLGSPSGEVSHPRKTRTVVQPSVGAAAGPVVPPCPGRIRHFKV"
